Assays:
[1] = test system: plasmacytoid dendritic cells; assay type: cell-based, mouse; conditions: pDC differentiated with TLR agonist on day 3, stimulated with ODN1826 (1 μg/ml), 24 hours, ELISA; vs conventional pDC
TLR2 receptor [2] = molecular target: TLR2 receptor (Mus musculus, UniProt Q9QUN7); assay type: binding
TLR2 receptor [3] = assay type: binding, mouse; conditions: 5 μg/ml, 2 hours; compared to untreated group

TLR2 receptor (Mus musculus, UniProt Q9QUN7), sequence (Q9QUN7 25-784): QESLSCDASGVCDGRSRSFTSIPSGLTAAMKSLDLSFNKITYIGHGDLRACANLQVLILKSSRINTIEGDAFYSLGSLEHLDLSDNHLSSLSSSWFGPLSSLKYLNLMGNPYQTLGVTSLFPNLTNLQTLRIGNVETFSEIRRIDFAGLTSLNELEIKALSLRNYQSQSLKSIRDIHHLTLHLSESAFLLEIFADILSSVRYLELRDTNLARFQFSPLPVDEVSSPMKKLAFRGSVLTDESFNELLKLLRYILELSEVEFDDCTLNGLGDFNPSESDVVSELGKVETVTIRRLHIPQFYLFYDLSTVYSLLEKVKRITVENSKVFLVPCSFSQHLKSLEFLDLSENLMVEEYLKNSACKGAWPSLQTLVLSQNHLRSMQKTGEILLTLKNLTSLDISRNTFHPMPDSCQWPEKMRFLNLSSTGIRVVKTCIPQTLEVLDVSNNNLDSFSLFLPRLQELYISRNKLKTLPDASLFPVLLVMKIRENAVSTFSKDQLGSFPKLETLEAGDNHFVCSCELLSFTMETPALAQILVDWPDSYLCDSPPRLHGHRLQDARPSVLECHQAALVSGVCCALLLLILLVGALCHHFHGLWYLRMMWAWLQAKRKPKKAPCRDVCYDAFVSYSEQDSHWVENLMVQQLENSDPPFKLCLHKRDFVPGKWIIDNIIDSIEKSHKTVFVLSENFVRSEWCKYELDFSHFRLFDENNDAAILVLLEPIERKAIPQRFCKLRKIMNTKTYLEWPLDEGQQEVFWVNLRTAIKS

B1: Rv1411c protein: His-labeled protein derived from M tuberculosis, confirmed as TLR2 agonist (protein, UniProt P9WK45 27-236, looked up)
Lipoarabinomannan carrier …: CSSGSKPSGGPLPDAKPLVEEATAQTKALKSAHMVLTVNGKIPGLSLKTLSGDLTTNPTAATGNVKLTLGGSDIDADFVVFDGILYATLTPNQWSDFGPAADIYDPAQVLNPDTGLANVLANFADAKAEGRDTINGQNTIRISGKVSAQAVNQIAPPFNATQPVPATVWIQETGDHQLAQAQLDRGSGNSVQMTLSKWGEKVQVTKPPVS
modifications: His tag
notes: His-labeled protein derived from M tuberculosis, confirmed as TLR2 agonist
expression level of IFN-α [1]: drastically reduced in a concentration-dependent manner
expression level of IFN-β [1]: drastically reduced in a concentration-dependent manner
expression level of IL-10 [1]: marked increase in a concentration-dependent manner
expression level of IL-12p70 [1]: drastically reduced in a concentration-dependent manner
expression level of TNF-α [1]: drastically reduced in a concentration-dependent manner
binding to TLR2 receptor (TLR2 receptor [2]): binds to the TLR2 receptor
binding to wild-type dendritic cells (WT) (TLR2 receptor [2]): increased binding
binding strength to TLR2 knockout-derived dendritic cells (TLR2−/−) (TLR2 receptor [3]): the same as that in the untreated experimental group
